Our source for the Kd values is publication PMC10786891, “Massively parallel profiling of RNA-targeting CRISPR-Cas13d”.

Where a chain is given by its changes, count along the chain named. Names and notes keep the numbering of the source.

The labels stand for the following.
T1: EsCas13d, nuclease-dead (Eubacterium siraeum, UniProt B0MS50, R295A;H300A;R849A;H854A)
T1 sequence: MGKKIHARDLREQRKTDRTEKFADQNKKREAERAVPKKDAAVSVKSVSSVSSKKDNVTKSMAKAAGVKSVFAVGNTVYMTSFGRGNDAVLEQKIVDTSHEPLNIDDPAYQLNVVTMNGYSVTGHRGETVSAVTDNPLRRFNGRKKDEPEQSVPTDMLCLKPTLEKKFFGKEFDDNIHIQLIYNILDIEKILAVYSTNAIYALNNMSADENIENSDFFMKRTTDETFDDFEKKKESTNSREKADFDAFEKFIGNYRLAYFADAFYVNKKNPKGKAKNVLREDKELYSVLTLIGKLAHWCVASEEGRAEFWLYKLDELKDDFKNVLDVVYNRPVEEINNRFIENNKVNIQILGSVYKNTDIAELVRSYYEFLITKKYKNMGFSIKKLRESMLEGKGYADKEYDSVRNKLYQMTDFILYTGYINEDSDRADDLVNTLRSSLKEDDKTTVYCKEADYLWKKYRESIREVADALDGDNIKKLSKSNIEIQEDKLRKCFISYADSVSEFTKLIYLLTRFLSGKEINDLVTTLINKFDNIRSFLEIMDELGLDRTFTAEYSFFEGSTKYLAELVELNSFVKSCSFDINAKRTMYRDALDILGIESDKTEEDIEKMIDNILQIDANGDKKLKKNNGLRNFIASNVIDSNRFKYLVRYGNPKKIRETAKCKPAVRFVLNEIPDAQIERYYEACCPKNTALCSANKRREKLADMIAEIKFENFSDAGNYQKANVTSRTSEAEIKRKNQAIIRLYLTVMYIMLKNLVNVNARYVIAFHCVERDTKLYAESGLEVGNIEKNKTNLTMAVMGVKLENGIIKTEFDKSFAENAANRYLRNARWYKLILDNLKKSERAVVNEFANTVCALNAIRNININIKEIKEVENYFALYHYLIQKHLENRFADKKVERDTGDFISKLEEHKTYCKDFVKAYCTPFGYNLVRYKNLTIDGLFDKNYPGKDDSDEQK

B1: target 1 insU 3' of 22,insA 3' of 4 (mixed)
RNA 1: CACCCGUGCAAAAAUGCAGGGGUCUAAAACUGAGCGGAUAACCUCUCUAUGG
RNA 2: GGGAAUGGAUCCACAUCUACGAAUUCGUACUCAUAGAGAGGUUAUCCGCAUCACCGAGAUCGGAAGAGCACACGU
B2: target 1 G5A,A20C (mixed)
RNA 1: B1 RNA 1
RNA 2: GGGAAUGGAUCCACAUCUACGAAUUCGUACCCUAGAGAGGUUAUCCACUCACCGAGAUCGGAAGAGCACACGU
B3: target 1 A9C,A16C (mixed)
RNA 1: B1 RNA 1
RNA 2: B2 RNA 2 with C32A, A36C, A43C, A47G
B4: target 2 MT 5'PFS GUU 3'PFS AAA (mixed)
RNA 1: CACCCGUGCAAAAUUGCAGGGGUCUAAAACCUUCUCCAAAUUGUUUCAUCCU
RNA 2: GGGAAUGGAUCCACAUCUACGAAUUCGUUAGGAUGAAACAAUUUGGAGAAGAAAAGAUCGGAAGAGCACACGU
B5: target 2 MT 5'PFS GUC 3'PFS CAU (mixed)
RNA 1: B4 RNA 1
RNA 2: B4 RNA 2 with U29C, A52C, A54U
B6: target 2 MT 5'PFS UCU 3'PFS UGA (mixed)
RNA 1: B4 RNA 1
RNA 2: B4 RNA 2 with G27U, U28C, A52U, A53G
B7: target 2 MT 5'PFS AGC 3'PFS CGA (mixed)
RNA 1: B4 RNA 1
RNA 2: B4 RNA 2 with G27A, U28G, U29C, A52C, A53G
B8: target 2 MT 5'PFS GUU 3'PFS AAG (mixed)
RNA 1: B4 RNA 1
RNA 2: B4 RNA 2 with A54G
B9: target 2 MT 5'PFS UAU 3'PFS UGC (mixed)
RNA 1: B4 RNA 1
RNA 2: B4 RNA 2 with G27U, U28A, A52U, A53G, A54C
B10: target 2 MT 5'PFS AGC 3'PFS UGC (mixed)
RNA 1: B4 RNA 1
RNA 2: B4 RNA 2 with G27A, U28G, U29C, A52U, A53G, A54C
B11: target 2 MT 5'PFS UCU 3'PFS UGC (mixed)
RNA 1: B4 RNA 1
RNA 2: B4 RNA 2 with G27U, U28C, A52U, A53G, A54C
B12: target 2 MT 5'PFS CAU 3'PFS AGC (mixed)
RNA 1: B4 RNA 1
RNA 2: B4 RNA 2 with G27C, U28A, A53G, A54C
B13: target 2 MT 5'PFS GAG 3'PFS AGA (mixed)
RNA 1: B4 RNA 1
RNA 2: B4 RNA 2 with U28A, U29G, A53G
B14: target 2 MT 5'PFS AGA 3'PFS AAG (mixed)
RNA 1: B4 RNA 1
RNA 2: B4 RNA 2 with G27A, U28G, U29A, A54G
B15: target 2 MT 5'PFS CUU 3'PFS ACC (mixed)
RNA 1: B4 RNA 1
RNA 2: B4 RNA 2 with G27C, A53C, A54C
B16: target 2 MT 5'PFS GAG 3'PFS AGC (mixed)
RNA 1: B4 RNA 1
RNA 2: B4 RNA 2 with U28A, U29G, A53G, A54C
B17: target 2 MT 5'PFS AGA 3'PFS AAA (mixed)
RNA 1: B4 RNA 1
RNA 2: B4 RNA 2 with G27A, U28G, U29A
B18: target 2 MT 5'PFS AGA 3'PFS AAC (mixed)
RNA 1: B4 RNA 1
RNA 2: B4 RNA 2 with G27A, U28G, U29A, A54C
B19: target 2 MT 5'PFS CGA 3'PFS UUA (mixed)
RNA 1: B4 RNA 1
RNA 2: B4 RNA 2 with G27C, U28G, U29A, A52U, A53U
B20: target 2 MT 5'PFS GUA 3'PFS CAG (mixed)
RNA 1: B4 RNA 1
RNA 2: B4 RNA 2 with U29A, A52C, A54G
B21: target 2 MT 5'PFS UGU 3'PFS CAC (mixed)
RNA 1: B4 RNA 1
RNA 2: B4 RNA 2 with G27U, U28G, A52C, A54C
B22: target 2 MT 5'PFS CUU 3'PFS ACG (mixed)
RNA 1: B4 RNA 1
RNA 2: B4 RNA 2 with G27C, A53C, A54G
B23: target 2 MT 5'PFS CAU 3'PFS AGA (mixed)
RNA 1: B4 RNA 1
RNA 2: B4 RNA 2 with G27C, U28A, A53G
B24: target 2 MT 5'PFS AGC 3'PFS CGG (mixed)
RNA 1: B4 RNA 1
RNA 2: B4 RNA 2 with G27A, U28G, U29C, A52C, A53G, A54G
B25: target 2 MT 5'PFS UAU 3'PFS UGU (mixed)
RNA 1: B4 RNA 1
RNA 2: B4 RNA 2 with G27U, U28A, A52U, A53G, A54U
B26: target 2 MT 5'PFS UGU 3'PFS CAG (mixed)
RNA 1: B4 RNA 1
RNA 2: B4 RNA 2 with G27U, U28G, A52C, A54G
B27: target 2 MT 5'PFS CUU 3'PFS ACA (mixed)
RNA 1: B4 RNA 1
RNA 2: B4 RNA 2 with G27C, A53C
B28: target 2 MT 5'PFS UAU 3'PFS UGA (mixed)
RNA 1: B4 RNA 1
RNA 2: B4 RNA 2 with G27U, U28A, A52U, A53G
B29: target 2 MT 5'PFS CUU 3'PFS ACU (mixed)
RNA 1: B4 RNA 1
RNA 2: B4 RNA 2 with G27C, A53C, A54U
B30: target 2 MT 5'PFS AGC 3'PFS CGC (mixed)
RNA 1: B4 RNA 1
RNA 2: B4 RNA 2 with G27A, U28G, U29C, A52C, A53G, A54C
B31: target 2 MT 5'PFS GAG 3'PFS CGU (mixed)
RNA 1: B4 RNA 1
RNA 2: B4 RNA 2 with U28A, U29G, A52C, A53G, A54U

For the data set, the target named is T1, EsCas13d, nuclease-dead. As to the kind of experiment: crRNA (strand 1, pre-loaded); Mg2+; 40 mM Tris-HCl pH 7.5, 150 mM NaCl, 6 mM MgCl2, 1 mM DTT, 0.1% Tween-20, 0.2 mg/ml BSA; 25 C; 10 min per concentration, then washed. The conditions noted are these: tags: His6-TwinStrep-SUMO cleaved; N-terminal SNAP kept (SNAP-Surface 488); label: 3' end held by stalled T7 RNA polymerase.
In turn, B1 showed a dissociation constant (Kd) of 23 ± 1.9 nM.
In turn, B2 had an equilibrium dissociation constant (Kd) of 88 ± 13 nM.
Then B3, with 86 ± 16 nM.
In the case of B4 it was 14 ± 7 nM.
In the case of B5 it was 10.3 ± 1.4 nM.
B6 came in with a Kd of 14.5 ± 3.5 nM.
Then B7, with 15 ± 5 nM; and B8, with 9.3 ± 0.8 nM; and B9, with 30 ± 6 nM.
B10 yielded a dissociation constant Kd of 8.2 ± 1.4 nM.
Then B11, with 11.7 ± 2.1 nM; and B12, with 3 ± 0.4 nM; and B13, with 4.9 ± 0.5 nM.
In the case of B14 it was 7.1 ± 1.3 nM.
In the case of B15 it was 10.5 ± 2.2 nM.
With B16, the Kd was 5.7 ± 0.7 nM.
Then B17, with 4.5 ± 1.2 nM; and B18, with 5.8 ± 1 nM; and B19, with 9 ± 1.7 nM.
Then B20, with 9.6 ± 1.1 nM; and B21, with 16 ± 2.5 nM; and B22, with 4.4 ± 0.5 nM.
Consider B23, for which the Kd worked out at 2.8 ± 0.6 nM.
Consider B24, for which the affinity, expressed as Kd, was 5.8 ± 1 nM.
In the case of B25, the affinity, expressed as Kd, was 29.1 ± 3.4 nM.
Then B26, with 9 ± 0.9 nM.
In the case of B27 it was 4.9 ± 0.6 nM; in that of B28, 37 ± 9 nM; in that of B29, 6.3 ± 0.9 nM.
In the case of B30 it was 7.5 ± 0.7 nM; in that of B31, 9.4 ± 0.9 nM.

What is called Kd is the equilibrium constant for the complex coming apart.
